Test results taken from publication doi:10.1101/2021.04.06.21255004.

Columns and labels:
[1] = target: purified human alpha globin (human) (UniProt P69905); experiment: BLI
[2] = target: Endothelial nitric oxide synthase (Homo sapiens*) (UniProt P29474)
Sequence of Endothelial nitric oxide synthase (Homo sapiens*) (P29474 66-492): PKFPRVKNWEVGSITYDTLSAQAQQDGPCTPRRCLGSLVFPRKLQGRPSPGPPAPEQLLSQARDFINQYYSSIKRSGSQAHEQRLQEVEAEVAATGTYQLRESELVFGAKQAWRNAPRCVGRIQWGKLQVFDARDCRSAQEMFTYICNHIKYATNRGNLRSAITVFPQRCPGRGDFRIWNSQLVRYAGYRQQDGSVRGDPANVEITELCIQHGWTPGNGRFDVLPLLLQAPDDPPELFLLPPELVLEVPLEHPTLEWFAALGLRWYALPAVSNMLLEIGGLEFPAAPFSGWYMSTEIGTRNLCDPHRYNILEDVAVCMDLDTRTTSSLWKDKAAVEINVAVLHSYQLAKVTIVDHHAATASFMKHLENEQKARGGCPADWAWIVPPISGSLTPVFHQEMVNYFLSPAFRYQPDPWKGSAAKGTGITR

Sequence of purified human alpha globin (human) (P69905 whole entry): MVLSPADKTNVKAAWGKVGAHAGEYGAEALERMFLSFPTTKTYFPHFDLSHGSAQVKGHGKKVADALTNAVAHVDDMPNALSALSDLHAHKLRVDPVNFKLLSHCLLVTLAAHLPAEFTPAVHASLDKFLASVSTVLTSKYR
Sequence of Alpha globin (P69905 2-142): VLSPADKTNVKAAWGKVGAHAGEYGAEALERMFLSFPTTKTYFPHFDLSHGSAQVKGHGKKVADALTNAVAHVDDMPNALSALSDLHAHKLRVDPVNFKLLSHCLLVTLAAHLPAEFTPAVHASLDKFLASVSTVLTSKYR
Sequence of recombinant human eNOS oxidase domain (domain or fragment) (P29474 2-1203): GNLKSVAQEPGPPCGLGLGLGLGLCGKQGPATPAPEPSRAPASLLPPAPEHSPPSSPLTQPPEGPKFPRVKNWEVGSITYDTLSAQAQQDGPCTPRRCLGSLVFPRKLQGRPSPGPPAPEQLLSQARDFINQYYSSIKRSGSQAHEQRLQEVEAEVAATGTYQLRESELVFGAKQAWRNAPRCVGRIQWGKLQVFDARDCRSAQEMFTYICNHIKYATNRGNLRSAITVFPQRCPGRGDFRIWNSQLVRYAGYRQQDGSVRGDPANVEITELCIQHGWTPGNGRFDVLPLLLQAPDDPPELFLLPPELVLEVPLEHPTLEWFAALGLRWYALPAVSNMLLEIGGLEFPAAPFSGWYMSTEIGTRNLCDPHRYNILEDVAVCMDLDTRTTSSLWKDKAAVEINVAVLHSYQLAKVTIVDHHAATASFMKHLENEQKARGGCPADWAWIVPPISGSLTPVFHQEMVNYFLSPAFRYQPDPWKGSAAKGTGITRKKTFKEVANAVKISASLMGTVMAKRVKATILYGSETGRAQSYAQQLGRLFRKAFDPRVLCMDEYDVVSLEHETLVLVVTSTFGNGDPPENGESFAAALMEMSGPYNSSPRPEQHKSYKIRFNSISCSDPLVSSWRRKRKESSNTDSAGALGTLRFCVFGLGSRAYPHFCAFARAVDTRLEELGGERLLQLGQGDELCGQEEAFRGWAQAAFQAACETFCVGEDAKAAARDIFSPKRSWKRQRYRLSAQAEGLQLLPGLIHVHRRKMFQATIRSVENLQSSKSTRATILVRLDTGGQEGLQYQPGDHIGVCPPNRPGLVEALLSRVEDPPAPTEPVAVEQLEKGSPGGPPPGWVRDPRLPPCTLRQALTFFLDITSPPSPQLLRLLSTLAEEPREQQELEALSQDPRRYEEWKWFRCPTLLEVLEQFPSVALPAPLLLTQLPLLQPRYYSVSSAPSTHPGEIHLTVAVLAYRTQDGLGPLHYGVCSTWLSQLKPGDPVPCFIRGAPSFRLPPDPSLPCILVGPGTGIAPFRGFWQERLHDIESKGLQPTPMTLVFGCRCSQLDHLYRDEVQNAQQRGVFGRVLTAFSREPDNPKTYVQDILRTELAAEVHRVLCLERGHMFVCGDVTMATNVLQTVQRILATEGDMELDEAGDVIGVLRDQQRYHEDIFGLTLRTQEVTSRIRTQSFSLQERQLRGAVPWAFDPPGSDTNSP

| Substance | Kd [1] [nM] | Kd [2] [nM] |
| --- | --- | --- |
| recombinant human eNOS oxidase domain (domain or fragment) | 1310 | – |
| Alpha globin (from UniProt P69905) | – | 1300 |
